# Experimental data from patent US20240117018A1.
# Tests used:
# Assay in all cases: cell-based or functional assay
# [1] = target: HIV-1 Env of pseudovirus 0815.v3.c3 (HIV-1)
# [2] = target: HIV-1 Env of pseudovirus 231965.c01 (HIV-1)
# [3] = target: HIV-1 Env of pseudovirus 231966.c02 (HIV-1)
# [4] = target: HIV-1 Env of pseudovirus 235-47 (HIV-1)
# [5] = target: HIV-1 Env of pseudovirus 3016.v5.c45 (HIV-1)
# [6] = target: HIV-1 Env of pseudovirus 3103.v3.c10 (HIV-1)
# [7] = target: HIV-1 Env of pseudovirus 3301.v1.c24 (HIV-1)
# [8] = target: HIV-1 Env of pseudovirus 3817.v2.c59 (HIV-1)
# [9] = target: HIV-1 Env of pseudovirus 6041.v3.c23 (HIV-1)
# [10] = target: HIV-1 Env of pseudovirus 620345.c01 (HIV-1)
# [11] = target: HIV-1 Env of pseudovirus 6480.v4.c25 (HIV-1)
# [12] = target: HIV-1 Env of pseudovirus 6540.v4.c1 (HIV-1)
# [13] = target: HIV-1 Env of pseudovirus 6545.v4.c1 (HIV-1)
# [14] = target: HIV-1 Env of pseudovirus 6811.v7.c18 (HIV-1)
# [15] = target: HIV-1 Env of pseudovirus 6952.v1.c20 (HIV-1)
# [16] = target: HIV-1 Env of pseudovirus A07412M1.vrc12 (HIV-1)
# [17] = target: HIV-1 Env of pseudovirus BJOX015000.11.5 (HIV-1)
# [18] = target: HIV-1 Env of pseudovirus BJOX025000.01.1 (HIV-1)
# [19] = target: HIV-1 Env of pseudovirus BJOX028000.10.3 (HIV-1)
# [20] = target: HIV-1 Env of pseudovirus C1080.c03 (HIV-1)
# [21] = target: HIV-1 Env of pseudovirus C3347.c11 (HIV-1)
# [22] = target: HIV-1 Env of pseudovirus P0402_c2_11 (HIV-1)
# [23] = target: HIV-1 Env of pseudovirus R1166.c01 (HIV-1)
# [24] = target: HIV-1 Env of pseudovirus R2184.c04 (HIV-1)
# [25] = target: HIV-1 Env of pseudovirus R3265.c06 (HIV-1)
# [26] = target: HIV-1 Env of pseudovirus T251-18 (HIV-1)
# [27] = target: HIV-1 Env of pseudovirus T278-50 (HIV-1)
# [28] = target: HIV-1 Env of pseudovirus X1193_c1 (HIV-1)
# [29] = target: HIV-1 Env of pseudovirus X1254_c3 (HIV-1)
# [30] = target: HIV-1 Env of pseudovirus X1632_S2_B10 (HIV-1)
# [31] = target: HIV-1 Env of pseudovirus X2088_c9 (HIV-1)
# [32] = target: HIV-1 Env of pseudovirus X2131_C1_B5 (HIV-1)
substance,measurement,setting,value
10E8 (antibody),IC50 neutralization (TZM.bl),[1],0.332 µg/mL
same,IC80 neutralization (TZM.bl),[1],2.87 µg/mL
same,IC50 neutralization (TZM.bl),[2],> 10 µg/mL
same,IC80 neutralization (TZM.bl),[2],> 10 µg/mL
same,IC50 neutralization (TZM.bl),[3],0.191 µg/mL
same,IC80 neutralization (TZM.bl),[3],3.13 µg/mL
same,IC50 neutralization (TZM.bl),[4],0.384 µg/mL
same,IC80 neutralization (TZM.bl),[4],2.07 µg/mL
same,IC50 neutralization (TZM.bl),[5],0.476 µg/mL
same,IC80 neutralization (TZM.bl),[5],4.39 µg/mL
same,IC50 neutralization (TZM.bl),[6],> 10 µg/mL
same,IC80 neutralization (TZM.bl),[6],> 10 µg/mL
same,IC50 neutralization (TZM.bl),[7],4.63 µg/mL
same,IC80 neutralization (TZM.bl),[7],> 10 µg/mL
same,IC50 neutralization (TZM.bl),[8],1.18 µg/mL
same,IC80 neutralization (TZM.bl),[8],5.98 µg/mL
same,IC50 neutralization (TZM.bl),[9],2.33 µg/mL
same,IC80 neutralization (TZM.bl),[9],9.77 µg/mL
same,IC50 neutralization (TZM.bl),[10],0.455 µg/mL
same,IC80 neutralization (TZM.bl),[10],6 µg/mL
same,IC50 neutralization (TZM.bl),[11],8.08 µg/mL
same,IC80 neutralization (TZM.bl),[11],> 10 µg/mL
same,IC50 neutralization (TZM.bl),[12],1.9 µg/mL
same,IC80 neutralization (TZM.bl),[12],10 µg/mL
same,IC50 neutralization (TZM.bl),[13],1.78 µg/mL
same,IC80 neutralization (TZM.bl),[13],8.23 µg/mL
same,IC50 neutralization (TZM.bl),[14],7.54 µg/mL
same,IC80 neutralization (TZM.bl),[14],> 10 µg/mL
same,IC50 neutralization (TZM.bl),[15],0.343 µg/mL
same,IC80 neutralization (TZM.bl),[15],1.91 µg/mL
same,IC50 neutralization (TZM.bl),[16],0.576 µg/mL
same,IC80 neutralization (TZM.bl),[16],6.05 µg/mL
same,IC50 neutralization (TZM.bl),[17],0.051 µg/mL
same,IC80 neutralization (TZM.bl),[17],1.91 µg/mL
same,IC50 neutralization (TZM.bl),[18],0.107 µg/mL
same,IC80 neutralization (TZM.bl),[18],6.33 µg/mL
same,IC50 neutralization (TZM.bl),[19],0.665 µg/mL
same,IC80 neutralization (TZM.bl),[19],7.36 µg/mL
same,IC50 neutralization (TZM.bl),[20],0.061 µg/mL
same,IC80 neutralization (TZM.bl),[20],0.731 µg/mL
same,IC50 neutralization (TZM.bl),[21],0.016 µg/mL
same,IC80 neutralization (TZM.bl),[21],0.167 µg/mL
same,IC50 neutralization (TZM.bl),[22],0.172 µg/mL
same,IC80 neutralization (TZM.bl),[22],3.29 µg/mL
same,IC50 neutralization (TZM.bl),[23],0.274 µg/mL
same,IC80 neutralization (TZM.bl),[23],2.61 µg/mL
same,IC50 neutralization (TZM.bl),[24],0.272 µg/mL
same,IC80 neutralization (TZM.bl),[24],2.46 µg/mL
same,IC50 neutralization (TZM.bl),[25],> 10 µg/mL
same,IC80 neutralization (TZM.bl),[25],> 10 µg/mL
same,IC50 neutralization (TZM.bl),[26],2.36 µg/mL
same,IC80 neutralization (TZM.bl),[26],> 10 µg/mL
same,IC50 neutralization (TZM.bl),[27],0.949 µg/mL
same,IC80 neutralization (TZM.bl),[27],7.46 µg/mL
same,IC50 neutralization (TZM.bl),[28],0.497 µg/mL
same,IC80 neutralization (TZM.bl),[28],4.2 µg/mL
same,IC50 neutralization (TZM.bl),[29],4.75 µg/mL
same,IC80 neutralization (TZM.bl),[29],> 10 µg/mL
same,IC50 neutralization (TZM.bl),[30],1.98 µg/mL
same,IC80 neutralization (TZM.bl),[30],9.68 µg/mL
same,IC50 neutralization (TZM.bl),[31],> 10 µg/mL
same,IC80 neutralization (TZM.bl),[31],> 10 µg/mL
same,IC50 neutralization (TZM.bl),[32],0.189 µg/mL
same,IC80 neutralization (TZM.bl),[32],0.974 µg/mL
PG9 (antibody),IC50 neutralization (TZM.bl),[1],> 50 µg/mL
same,IC80 neutralization (TZM.bl),[1],> 50 µg/mL
same,IC50 neutralization (TZM.bl),[2],1.28 µg/mL
same,IC80 neutralization (TZM.bl),[2],48 µg/mL
same,IC50 neutralization (TZM.bl),[3],0.075 µg/mL
same,IC80 neutralization (TZM.bl),[3],0.257 µg/mL
same,IC50 neutralization (TZM.bl),[4],0.233 µg/mL
same,IC80 neutralization (TZM.bl),[4],1.2 µg/mL
same,IC50 neutralization (TZM.bl),[5],2.46 µg/mL
same,IC80 neutralization (TZM.bl),[5],> 50 µg/mL
same,IC50 neutralization (TZM.bl),[6],28 µg/mL
same,IC80 neutralization (TZM.bl),[6],> 50 µg/mL
same,IC50 neutralization (TZM.bl),[7],0.216 µg/mL
same,IC80 neutralization (TZM.bl),[7],0.756 µg/mL
same,IC50 neutralization (TZM.bl),[8],0.02 µg/mL
same,IC80 neutralization (TZM.bl),[8],0.062 µg/mL
same,IC50 neutralization (TZM.bl),[9],0.244 µg/mL
same,IC80 neutralization (TZM.bl),[9],3.64 µg/mL
same,IC50 neutralization (TZM.bl),[10],1.33 µg/mL
same,IC80 neutralization (TZM.bl),[10],> 50 µg/mL
same,IC50 neutralization (TZM.bl),[11],> 50 µg/mL
same,IC80 neutralization (TZM.bl),[11],> 50 µg/mL
same,IC50 neutralization (TZM.bl),[12],0.07 µg/mL
same,IC80 neutralization (TZM.bl),[12],0.253 µg/mL
same,IC50 neutralization (TZM.bl),[13],0.099 µg/mL
same,IC80 neutralization (TZM.bl),[13],0.351 µg/mL
same,IC50 neutralization (TZM.bl),[14],> 50 µg/mL
same,IC80 neutralization (TZM.bl),[14],> 50 µg/mL
same,IC50 neutralization (TZM.bl),[15],> 50 µg/mL
same,IC80 neutralization (TZM.bl),[15],> 50 µg/mL
same,IC50 neutralization (TZM.bl),[16],0.697 µg/mL
same,IC80 neutralization (TZM.bl),[16],7.96 µg/mL
same,IC50 neutralization (TZM.bl),[17],0.322 µg/mL
same,IC80 neutralization (TZM.bl),[17],1.49 µg/mL
same,IC50 neutralization (TZM.bl),[18],0.144 µg/mL
same,IC80 neutralization (TZM.bl),[18],0.335 µg/mL
same,IC50 neutralization (TZM.bl),[19],1.1 µg/mL
same,IC80 neutralization (TZM.bl),[19],21.5 µg/mL
same,IC50 neutralization (TZM.bl),[20],0.004 µg/mL
same,IC80 neutralization (TZM.bl),[20],0.013 µg/mL
same,IC50 neutralization (TZM.bl),[21],0.032 µg/mL
same,IC80 neutralization (TZM.bl),[21],0.113 µg/mL
same,IC50 neutralization (TZM.bl),[22],0.296 µg/mL
same,IC80 neutralization (TZM.bl),[22],2.37 µg/mL
same,IC50 neutralization (TZM.bl),[23],0.736 µg/mL
same,IC80 neutralization (TZM.bl),[23],2.88 µg/mL
same,IC50 neutralization (TZM.bl),[24],0.255 µg/mL
same,IC80 neutralization (TZM.bl),[24],1.24 µg/mL
same,IC50 neutralization (TZM.bl),[25],0.163 µg/mL
same,IC80 neutralization (TZM.bl),[25],0.535 µg/mL
same,IC50 neutralization (TZM.bl),[26],> 50 µg/mL
same,IC80 neutralization (TZM.bl),[26],> 50 µg/mL
same,IC50 neutralization (TZM.bl),[27],0.393 µg/mL
same,IC80 neutralization (TZM.bl),[27],3.19 µg/mL
same,IC50 neutralization (TZM.bl),[28],0.105 µg/mL
same,IC80 neutralization (TZM.bl),[28],0.304 µg/mL
same,IC50 neutralization (TZM.bl),[29],0.065 µg/mL
same,IC80 neutralization (TZM.bl),[29],0.304 µg/mL
same,IC50 neutralization (TZM.bl),[30],0.107 µg/mL
same,IC80 neutralization (TZM.bl),[30],0.934 µg/mL
same,IC50 neutralization (TZM.bl),[31],> 50 µg/mL
same,IC80 neutralization (TZM.bl),[31],> 50 µg/mL
same,IC50 neutralization (TZM.bl),[32],0.084 µg/mL
same,IC80 neutralization (TZM.bl),[32],0.286 µg/mL
